The target of assay [1] is T1, human erythropoietin receptor (huEpoR), cell surface expressed (human) (UniProt P19235).
T1 sequence (looked up): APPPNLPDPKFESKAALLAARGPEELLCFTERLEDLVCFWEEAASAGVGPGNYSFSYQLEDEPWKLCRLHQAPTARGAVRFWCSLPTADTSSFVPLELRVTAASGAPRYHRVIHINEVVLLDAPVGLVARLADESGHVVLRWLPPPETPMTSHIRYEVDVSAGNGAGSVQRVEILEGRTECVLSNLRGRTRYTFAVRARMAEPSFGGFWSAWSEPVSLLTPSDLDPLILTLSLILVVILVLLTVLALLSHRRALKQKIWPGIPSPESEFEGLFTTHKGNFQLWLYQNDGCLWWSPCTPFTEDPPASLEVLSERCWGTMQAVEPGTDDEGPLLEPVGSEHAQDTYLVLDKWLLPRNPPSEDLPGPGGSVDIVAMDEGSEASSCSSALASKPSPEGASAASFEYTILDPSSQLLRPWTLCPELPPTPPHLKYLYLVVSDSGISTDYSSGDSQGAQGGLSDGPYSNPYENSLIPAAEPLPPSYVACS
The assay can be described thus: cell-based or functional assay.

Assay [2] concerns the target cynomolgus monkey EpoR (cynoEpoR) (cynomolgus monkey). Kind of assay: SPR, Biacore T100; scFv-Fc captured by anti-human IgG Fc on CM5 chip, EpoR as analyte. In general terms: Surface plasmon resonance follows binding to a sensor surface in real time, without labels.
Assay [3] addresses T2, soluble human erythropoietin receptor protein (huEpoR) (human) (UniProt P19235).
T2 sequence (looked up): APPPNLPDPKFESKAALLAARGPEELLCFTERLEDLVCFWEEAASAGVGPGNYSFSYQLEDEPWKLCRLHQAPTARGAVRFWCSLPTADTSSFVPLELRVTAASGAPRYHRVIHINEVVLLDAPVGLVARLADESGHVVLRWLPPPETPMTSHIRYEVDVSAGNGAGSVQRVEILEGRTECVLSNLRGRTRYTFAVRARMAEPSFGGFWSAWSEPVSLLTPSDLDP
Described as above.

The target in assay [4] is cynomolgus monkey EpoR (cynoEpoR) (cynomolgus monkey). Kind of assay: SPR, Biacore T100; scFv-Fc captured on CM5 chip, EpoR as analyte; fit to steady-state model (off-rate too rapid); clone #318, cynomolgus EpoR, steady-state fit.

B1: clone 378 scFv-Fc protein (Fc fusion, part only; not given: scFv linker and IgG1 Fc, not shown: a dimerising Fc or GST)
scFv, part: QVQLVESGGGLVQPGRSLILSCAVSGFTFSKYWMTWVRQAPGKGLEWVANIKPDGSEKYYVESVKGRFTISRDNAKNSVYLQMNSVRAEDTAVYYCARVSRGGSFSDWSQGTLVTVSSQSALTQPPSASGSPGQSVTISCTGTSGDVGAYNYVSWYQQYPGKAPKLMIYEVSKRPSGVPDRFSGSKSGNTASLTVSGLQAEDEADYYCNSYRGSNGPWVFGGGTKVTVL
For the molecule B1, the Average EC50, UT-7-luciferase assay in assay [1] stood at 0.055 nM.

B2: clone 15 scFv-Fc protein (Fc fusion, part only; not given: scFv linker and IgG1 Fc, not shown: a dimerising Fc or GST)
scFv, part: QVQLQESGPGLVRPSGTLSLTCAVSGGSIGSSNWWSWVRQAPGKGLEWIGEISQSGSTNYNPSLKGRVTISLDRSRNQLSLKLSSVTAADTAVYYCARQLRSIDAFDIWGPGTTVTVSASYVLTQPPSVSVSPGLTATITCSGDKLGDKYASWYQQKPGQSPVLVIYQDRKRPSGIPERFSGSNSGNTATLTISGTQAVDEADYYCQAWDSDTSYVFGTGTQLTVL
Molecule B2 came in with an Average EC50, UT-7-luciferase assay in assay [1] of 2.8 nM. In assay [2], this molecule registered a Kd of 3130 nM, a koff of 0.115 s⁻¹ and a kon of 37000 M⁻¹ s⁻¹. In assay [3], the Kd was found to be 1950 nM, the koff was determined as 0.119 s⁻¹ and the kon was 61000 M⁻¹ s⁻¹.

B3: clone 352 scFv-Fc protein (Fc fusion, part only; not given: scFv linker and IgG1 Fc, not shown: a dimerising Fc or GST)
scFv, part: EVQLVQSGGGLVQPGGSLRLSCAASGFRFSSYWMTWVRQAPGKGLEWVANIKPDGSEKYYVDSVKGRFTMSRDNAKNSVYLQMNSLRAEDTAVYYCARVSRGGSFSDWGQGTLVTVSSQSALTQPASVSGSPGQSITIPCTGTSSDIGTYDYVSWYQQHPGKVPKVIIYEVTNRPSGVSNRFSGSKSGNTASLTISGLQADDEADYYCNSFTKNNTWVFGGGTKLTVL
For B3, in assay [1], the Average EC50, UT-7-luciferase assay was 2.16 nM.

B4: clone 323 scFv-Fc protein (Fc fusion, part only; not given: scFv linker and IgG1 Fc, not shown: a dimerising Fc or GST)
scFv, part: QVQLVESGGGLVQPGGSLRLSCAVSGFTFSKYWMTWVRQAPGKGLEWVANIKPDGSEKYYVESVKGRFTISRDNAKNSVYLQMNSVRAEDTAVYYCARVSRGGSFSDWGRGTMVTVSSQSALTQPASVSGSPGQSITISCTGTSSDVGSYNLVSWYQQHPGKVPKLIIYEVSNRPSGVSHRFSGSKSGNTASLTISGLQAEDEADYYCSSLTSSGTWVFGGGTKVTVL
For B4, the Average EC50, UT-7-luciferase assay in assay [1] came out at 0.613 nM.

B5: clone 13 scFv-Fc protein (Fc fusion, part only; not given: scFv linker and IgG1 Fc, not shown: a dimerising Fc or GST)
scFv, part: QVQLQQSGGGVVQPGRSLRLSCAASGFTFSDYAMHWVRQAPGKGLEWVAVISNHGKSTYYADSVKGRFTISRDNSKHMLYLQMNSLRADDTALYYCARDIALAGDYWGQGTLVTVSADIQMTQSPSSLSASVGDRVTITCRASQSISSYLNWYQQLPGKVPKLLIYGASKLQSGVPSRFSGSGSGTDFTLTISSLQPEDFATYYCLQDYNYPLTFGPGTRLEIK
For the molecule B5, in assay [1], the Average EC50, UT-7-luciferase assay was found to be 4.03 nM. Besides, in assay [2], the Kd amounted to 920 nM, the koff was 0.0597 s⁻¹ and the kon stood at 65000 M⁻¹ s⁻¹. In assay [3], the Kd came to 1040 nM, the koff is 0.0568 s⁻¹ and the kon worked out at 55000 M⁻¹ s⁻¹.

B6: clone 319 scFv-Fc protein (Fc fusion, part only; not given: Linker and IgG1 Fc, not shown: another chain or arm of the molecule; a dimerising Fc or GST; small tags and cut ends)
VH: QVQLVQSGAEIKKPGASVKVSCKTFGSPFSTNDIHWVRQAPGQGLEWMGIIDTSGAMTRYAQKFQGRVTVTRETSTSTVYMELSSLKSEDTAVYYCAREGCTNGVCYDNGFDIWGQGTLVTVSS
VL: DIQMTQSPSTLSASIGDRVTITCRASEGIYHWLAWYQQKPGKAPKLLIYKASSLASGAPSRFSGSGSGTDFTLTISSLQPDDFATYYCQQYSNYPLTFGGGTKLEIK
Take B6: the Average EC50, UT-7-luciferase assay in assay [1] was determined as 5.87 nM. In assay [2], this molecule yielded a Kd of 121 nM, a koff of 0.0258 s⁻¹ and a kon of 213000 M⁻¹ s⁻¹. For the same molecule, in assay [3], the Kd is 212 nM, the off-rate (koff) worked out at 0.0335 s⁻¹ and the kon was found to be 158000 M⁻¹ s⁻¹.

B7: clone 295 scFv-Fc protein (Fc fusion, part only; not given: scFv linker and IgG1 Fc, not shown: a dimerising Fc or GST)
scFv, part: EVQLVESGGGLVQPGGSLRLSCAASGFTFSSYAMSWVRQAPGKGLEWVSGISGSGSSEGGTYYADSVKGRFTLSRDNSKNTLYLQMNSLRAEDTALYYCVKDRPSRYSFGYYFDYWGRGTLVTVSSLPVLTQPPSVSVSPGQTASIACSGNKLGDKYVSWYQQKPGQSPLLVIYQDTKRPSGIPERFSGSNSGNTATLTISGTQAMDEADYYCQAWDSSTDVVFGGGTKLTVL
The molecule B7 came in with an Average EC50, UT-7-luciferase assay in assay [1] of 0.607 nM. In assay [2], the Kd was 539 nM, the koff came out at 0.0221 s⁻¹ and the kon was 41000 M⁻¹ s⁻¹. In assay [3], this molecule had a Kd of 163 nM, a koff of 0.00296 s⁻¹ and a kon of 18000 M⁻¹ s⁻¹.

B8: clone 276 scFv-Fc protein (Fc fusion, part only; not given: scFv linker and IgG1 Fc, not shown: a dimerising Fc or GST)
scFv, part: EVQLVQSGGGLVQPGGSLRLSCAASGFTFSSYWMSWVRQAPGKGLEWVANIKPDGSEKYYVDSVKGRFTISRDNAKNSVYLQMNSLRAEDTAVYYCARVSRGGSYSDWGRGTMVTVSSQSVLTQPPSASGSPGQSVTISCTGTSSDVGGFNYVSWYQKYPGKAPKLVIYEVSKRPSGVPDRFSGSKSGNTASLTVSGLQAEDEADYYCSSWAPGKNLFGGGTKLTVL
Molecule B8 showed an Average EC50, UT-7-luciferase assay in assay [1] of 0.322 nM.

B9: clone 16 scFv-Fc protein (Fc fusion, part only; not given: scFv linker and IgG1 Fc, not shown: a dimerising Fc or GST)
scFv, part: QVQLQESGPGLVKPSETLSLTCTVSGGYINNYYWSWIRQPPGKGLEWIGYIHYSGSTYYNPSLKSRVTISEDTSKNQFSLKLSSATAADTAVYYCARVGYYYDSSGYNLAWYFDLWGRGTLVTVSASSELTQDPAVSVALGQTVRITCQGDNLRSYSATWYQQKPGQAPVLVLFGENNRPSGIPDRFSGSKSGDTAVLTITGTQTQDEADYYCTSRVNSGNHLGVFGPGTQLTVL
As for B9, in assay [2], the Kd stood at 4360 nM, the koff was 0.283 s⁻¹ and the kon worked out at 65000 M⁻¹ s⁻¹. In assay [3], this molecule came in with a Kd of 2190 nM, a koff of 0.142 s⁻¹ and a kon of 65000 M⁻¹ s⁻¹.

B10: clone 201 scFv-Fc protein (Fc fusion, part only; not given: scFv linker and IgG1 Fc, not shown: a dimerising Fc or GST)
scFv, part: QVQLQESGSGLARPSQTLSLTCAVSGGSISSSAFSWNWIRQPPGKGLEWIGYIYHTGITDYNPSLKSRVTISVDRSKNQFSLNVNSVTAADTAVYYCARGHGSDPAWFDPWGKGTLVTVSSQSVLTQPPSVSVSPGQTASITCSGDKLGDKYASWYQQRPGQSPVLVIYRDTKRPSGIPERFSGSNSGNTATLTISGTQAVDEADYYCQAWDSTTSLVFGGGTKLTVL
Consider B10, for which the Average EC50, UT-7-luciferase assay in assay [1] worked out at 8.28 nM. In assay [2], this molecule gave a Kd of 18600 nM, a koff of 0.0508 s⁻¹ and a kon of 2700 M⁻¹ s⁻¹. Moreover, in assay [3], the Kd came out at 4030 nM, the koff is 0.0187 s⁻¹ and the kon came out at 4600 M⁻¹ s⁻¹.

B11: clone 318 scFv-Fc protein (Fc fusion, part only; not given: scFv linker and IgG1 Fc, not shown: a dimerising Fc or GST)
scFv, part: QVQLVESGGGLVQPGGSLRLSCAVSGFTFSKYWMTWVRQAPGKGLEWVANIKPDGSEKYYVESVKGRFTISRDNAKNSVYLQMNSVRAEDTAVYYCARVSRGGSFSDWGQGTLVTVSSQSVLTQPPSASGSPGQSVTISCTGTSSDVGGYNYVSWYQQHPGRAPKLIIYEVSKRPSGVPDRFSGSKSGNTASLTVSGLQADDEADYYCNSYAGSIYVFGSGTKVTVL
Turning to B11, the Average EC50, UT-7-luciferase assay in assay [1] was found to be 0.0154 nM. In assay [3], this molecule came in with a Kd of 847 nM, a koff of 0.558 s⁻¹ and a kon of 659000 M⁻¹ s⁻¹. Besides, the dissociation constant (Kd) in assay [4] was 4890 nM.

B12: clone 307 scFv-Fc protein (Fc fusion, part only; not given: scFv linker and IgG1 Fc, not shown: a dimerising Fc or GST)
scFv, part: EVQLVESGGGLVQPGGSLRLSCAVSGFTFSKYWMTWVRQAPGKGLEWVANIKPDGSEKYYVESVKGRFTISRDNAKNSVYLQMNSVRAEDTAVYYCARVSRGGSFSDWGQGTMVTVSSQSVLTQPPSASGSPGQSVTISCTGTSSDVGGYNYVSWYQQHPDKAPRLMIYDVNKRPSGVPDRFSGSKSGNTASLTVSGLQAEDEAHYYCNSYAGSNNWVFGGGTQLTVL
In the case of B12, in assay [1], the Average EC50, UT-7-luciferase assay was 0.381 nM. For the same molecule, in assay [2], the Kd was 1210 nM, the koff amounted to 0.361 s⁻¹ and the kon amounted to 299000 M⁻¹ s⁻¹. In assay [3], this molecule yielded an equilibrium dissociation constant (Kd) of 108 nM, a koff of 0.246 s⁻¹ and a kon of 2.28e+06 M⁻¹ s⁻¹.

B13: clone 330 scFv-Fc protein (Fc fusion, part only; not given: scFv linker and IgG1 Fc, not shown: a dimerising Fc or GST)
scFv, part: EVQLVESGGGLVQPGGSLRLSCAVSGFTFSKYWMTWVRQAPGKGLEWVANIKPDGSEKYYVESVKGRFTISRDNAKNSVYLQMNSVRAEDTAVYYCARVSRGGSFSDWGQGTLVTVSSQSALTQPPSASGSPGQSVTISCTGTSSDVGAYNYVSWYQQHPGKAPKLMIYEVARRPSGVPDRFSGSKSGNTASLTVSGLQAEDEADYYCSSYAGSNNFAVFGRGTKLTVL
In assay [1], B13 returned an Average EC50, UT-7-luciferase assay of 0.0075 nM. In assay [2], the Kd came to 890 nM, the koff came to 0.0965 s⁻¹ and the kon was 108000 M⁻¹ s⁻¹. In assay [3], this molecule returned a Kd of 45.4 nM, a koff of 0.0373 s⁻¹ and a kon of 822000 M⁻¹ s⁻¹.

In general, Kd refers to a measure of binding affinity in units of concentration. A word on the koff: it is a measure of how fast the partners let go of each other. For orientation: kon means a measure of how fast the partners come together.

The values above are taken from patent US20080124340A1.
